# Measurements taken from paper PMC4773404.
# Legend:
# Test in all cases: SPR; Biacore T200; receptor domains amine-coupled to CM5-S Series chips; analytes 0-20 nM flowed over; 10 mM HEPES, 150 mM NaCl, 3 mM EDTA, 0.05% surfactant P20, pH 7.4; double-referenced; 1:1 Langmuir fit
# [1] = molecular target: p75NTR extracellular domain (p75NTR ECD) (UniProt P08138)
# [2] = molecular target: sortilin luminal domain (LD)
# [3] = molecular target: SorCS2 luminal domain (LD)
# Chain of p75NTR extracellular domain (p75NTR ECD) (P08138 29-250): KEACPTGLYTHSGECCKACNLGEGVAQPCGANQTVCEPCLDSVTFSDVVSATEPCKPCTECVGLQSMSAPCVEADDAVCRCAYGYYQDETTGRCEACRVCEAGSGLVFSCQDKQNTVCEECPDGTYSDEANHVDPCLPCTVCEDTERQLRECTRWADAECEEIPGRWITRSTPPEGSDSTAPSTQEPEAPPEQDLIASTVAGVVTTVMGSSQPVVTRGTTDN
Substance,Kd [1] [nM],koff [1] [s⁻¹],kon [1] [M⁻¹ s⁻¹],Kd [2] [nM],koff [2] [s⁻¹],kon [2] [M⁻¹ s⁻¹],Kd [3] [nM],koff [3] [s⁻¹],kon [3] [M⁻¹ s⁻¹]
brain-derived neurotrophic factor (BDNF) (ligand),0.62,0.00251,4.44e+06,6.44,0.0217,3.8e+06,–,–,–
"human proBDNF Met66, furin cleavage-resistant (FCR) (natural protein)",2.31,0.00325,1.55e+06,3.83,0.00504,1.56e+06,2.23,0.00453,2.14e+06
"human proBDNF Val66, furin cleavage-resistant (FCR) (natural protein)",2.42,0.00394,1.88e+06,2.9,0.00746,2.48e+06,2.23,0.004,1.79e+06
